Experimental data: the supplement of paper PMC6379048

Columns and labels:
Assay in all cases: EC50 of free RNA motif oligo competing protein binding to immobilised probe
[1] = biological target: T1, LSM1 (UniProt O15116)
T1 sequence: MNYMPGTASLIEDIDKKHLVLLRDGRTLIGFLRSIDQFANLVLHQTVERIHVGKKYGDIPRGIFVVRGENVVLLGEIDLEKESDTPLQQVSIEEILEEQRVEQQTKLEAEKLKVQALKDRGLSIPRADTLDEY
Method in brief: (§1)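 Over three biological replicates and two independent experiments, proteins captured on NHS-Sepharose beads carrying 5′-amino-C6 RNA oligos were quantified by label-free LC-MS/MS and normalised to the control. Capture lasted 30 min at 4°C and followed a 1 h pre-incubation at 4°C of HEK293-FT lysate (2.5 mg protein/well) with the same oligos in free form (0 nM to 30 μM). EC50 was taken from a four-parameter log-logistic fit, and Kd was EC50 corrected by a protein-dependent depletion factor.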

[2] = biological target: T2, CPSF2 (UniProt Q9P2I0)
T2 sequence: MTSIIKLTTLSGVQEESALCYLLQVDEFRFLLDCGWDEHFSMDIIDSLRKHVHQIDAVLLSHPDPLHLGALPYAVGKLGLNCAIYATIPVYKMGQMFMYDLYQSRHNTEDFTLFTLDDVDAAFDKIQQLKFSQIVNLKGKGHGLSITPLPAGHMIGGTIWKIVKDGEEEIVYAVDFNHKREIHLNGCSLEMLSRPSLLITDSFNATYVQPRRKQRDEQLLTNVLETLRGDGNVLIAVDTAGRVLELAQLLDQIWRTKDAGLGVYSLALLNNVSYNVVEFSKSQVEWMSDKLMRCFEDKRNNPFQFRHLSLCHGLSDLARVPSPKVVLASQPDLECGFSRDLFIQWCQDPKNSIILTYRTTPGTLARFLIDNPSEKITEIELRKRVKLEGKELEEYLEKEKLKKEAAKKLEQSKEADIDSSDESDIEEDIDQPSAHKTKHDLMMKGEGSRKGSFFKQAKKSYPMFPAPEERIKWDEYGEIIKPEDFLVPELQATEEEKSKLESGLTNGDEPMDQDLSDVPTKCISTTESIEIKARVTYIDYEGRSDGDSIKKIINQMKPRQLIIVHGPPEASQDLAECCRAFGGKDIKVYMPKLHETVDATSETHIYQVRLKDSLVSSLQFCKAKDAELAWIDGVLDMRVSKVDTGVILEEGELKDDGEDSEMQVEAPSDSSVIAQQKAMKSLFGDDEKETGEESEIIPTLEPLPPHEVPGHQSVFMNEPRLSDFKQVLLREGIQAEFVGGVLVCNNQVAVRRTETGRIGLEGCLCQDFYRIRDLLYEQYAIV
Method in brief: as §1

[3] = biological target: T3, AQR (UniProt O60306)
T3 sequence: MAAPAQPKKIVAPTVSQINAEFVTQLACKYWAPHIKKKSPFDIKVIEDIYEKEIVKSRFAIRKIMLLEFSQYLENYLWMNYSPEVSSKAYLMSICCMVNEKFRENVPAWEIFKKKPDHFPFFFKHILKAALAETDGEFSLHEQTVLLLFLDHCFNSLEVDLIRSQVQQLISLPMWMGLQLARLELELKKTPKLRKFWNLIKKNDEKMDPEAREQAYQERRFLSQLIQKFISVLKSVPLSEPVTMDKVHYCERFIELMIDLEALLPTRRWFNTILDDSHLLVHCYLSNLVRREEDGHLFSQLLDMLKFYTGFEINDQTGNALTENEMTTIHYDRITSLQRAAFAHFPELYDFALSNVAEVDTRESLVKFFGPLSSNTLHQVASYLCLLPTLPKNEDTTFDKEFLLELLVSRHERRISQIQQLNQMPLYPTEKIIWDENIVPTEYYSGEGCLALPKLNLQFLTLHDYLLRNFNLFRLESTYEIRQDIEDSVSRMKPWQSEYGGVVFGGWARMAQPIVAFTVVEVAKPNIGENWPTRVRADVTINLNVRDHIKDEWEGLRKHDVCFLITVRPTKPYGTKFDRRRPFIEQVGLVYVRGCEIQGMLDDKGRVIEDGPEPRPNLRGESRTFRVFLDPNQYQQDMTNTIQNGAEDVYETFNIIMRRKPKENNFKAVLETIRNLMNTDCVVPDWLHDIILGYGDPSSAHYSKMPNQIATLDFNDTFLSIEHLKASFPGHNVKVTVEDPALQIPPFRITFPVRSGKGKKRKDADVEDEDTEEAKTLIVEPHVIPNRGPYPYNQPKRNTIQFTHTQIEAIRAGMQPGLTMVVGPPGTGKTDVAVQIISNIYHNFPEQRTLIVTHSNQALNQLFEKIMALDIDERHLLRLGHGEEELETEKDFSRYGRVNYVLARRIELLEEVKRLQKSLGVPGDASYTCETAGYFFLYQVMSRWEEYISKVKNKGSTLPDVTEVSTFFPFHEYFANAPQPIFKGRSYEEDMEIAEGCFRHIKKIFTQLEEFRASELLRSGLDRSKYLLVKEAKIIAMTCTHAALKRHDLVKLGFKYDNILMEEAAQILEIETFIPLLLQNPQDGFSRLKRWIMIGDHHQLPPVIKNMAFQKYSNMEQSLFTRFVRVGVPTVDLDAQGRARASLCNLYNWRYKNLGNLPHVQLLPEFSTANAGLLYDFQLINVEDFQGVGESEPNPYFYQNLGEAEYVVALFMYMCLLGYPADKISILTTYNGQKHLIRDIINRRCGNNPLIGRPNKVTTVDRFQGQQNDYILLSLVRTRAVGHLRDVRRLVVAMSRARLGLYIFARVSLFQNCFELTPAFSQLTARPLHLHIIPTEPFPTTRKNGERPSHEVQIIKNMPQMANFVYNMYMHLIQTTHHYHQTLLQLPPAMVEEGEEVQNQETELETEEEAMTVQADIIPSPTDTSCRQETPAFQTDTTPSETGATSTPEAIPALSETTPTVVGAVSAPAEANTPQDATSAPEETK
Method in brief: as §1

[4] = biological target: LRPPRC (UniProt P42704)
Method in brief: as §1

Sequence | EC50 [1] | EC50 [2] | EC50 [3] | EC50 [4]
UAUUUAU | 0.395 µM | 1.51 µM | 0.706 µM | –
AAUAAA | 0.188 µM | 0.0683 µM | 0.877 µM | 2.88 µM
CUGUCCU | – | – | – | 2.27 µM
